# B1: Mitochondrial association factor 1 form b1 (Toxoplasma gondii), A0A140H546 (parent)
# chain: MWRIWRCRLSFLFATGCLLGALTAGLGSQMSDSVGRNVQAPAGVADASQEAGDVVEERTERTEEQAFALGPPRRHSSESLFPRNASVTARRRRNRRIALIATAVGVAVILAAVYVLRRRRAQRPQDPEPPAPRSVEDPEVLPEEDEASSSLPPPPPPSPPPPPPVEDPLSPESQTVDLSCLSGTTVRFFGPSHHFGGFTPLYDPAPDKRVATVDAGANALFIGGGGLNGQFAKTLLEEAEKHGIRLTPEELSQHSQRIQQSLLRRAVKSPGKLVELDTGVASPVFARSFGFVPVVPGLMWEESEVGPNVGVTFVHILKPEVTPYGNLNNNVMMYTVAPSGAAPDKTYSLAYKTTIAGVIGAAAAYNDTPAGQQYPVQGLRLPLLGGGIFRRNRSLESIGRANAEGTSLAITRYGPNFELQYMYDPSNAALHGLQEAESTYLASMLD
# Variants of: B1
# Settings: with RALGAPA1, Q6GYQ0-1
# RALGAPA1, Q6GYQ0-1, sequence (Q6GYQ0 whole entry): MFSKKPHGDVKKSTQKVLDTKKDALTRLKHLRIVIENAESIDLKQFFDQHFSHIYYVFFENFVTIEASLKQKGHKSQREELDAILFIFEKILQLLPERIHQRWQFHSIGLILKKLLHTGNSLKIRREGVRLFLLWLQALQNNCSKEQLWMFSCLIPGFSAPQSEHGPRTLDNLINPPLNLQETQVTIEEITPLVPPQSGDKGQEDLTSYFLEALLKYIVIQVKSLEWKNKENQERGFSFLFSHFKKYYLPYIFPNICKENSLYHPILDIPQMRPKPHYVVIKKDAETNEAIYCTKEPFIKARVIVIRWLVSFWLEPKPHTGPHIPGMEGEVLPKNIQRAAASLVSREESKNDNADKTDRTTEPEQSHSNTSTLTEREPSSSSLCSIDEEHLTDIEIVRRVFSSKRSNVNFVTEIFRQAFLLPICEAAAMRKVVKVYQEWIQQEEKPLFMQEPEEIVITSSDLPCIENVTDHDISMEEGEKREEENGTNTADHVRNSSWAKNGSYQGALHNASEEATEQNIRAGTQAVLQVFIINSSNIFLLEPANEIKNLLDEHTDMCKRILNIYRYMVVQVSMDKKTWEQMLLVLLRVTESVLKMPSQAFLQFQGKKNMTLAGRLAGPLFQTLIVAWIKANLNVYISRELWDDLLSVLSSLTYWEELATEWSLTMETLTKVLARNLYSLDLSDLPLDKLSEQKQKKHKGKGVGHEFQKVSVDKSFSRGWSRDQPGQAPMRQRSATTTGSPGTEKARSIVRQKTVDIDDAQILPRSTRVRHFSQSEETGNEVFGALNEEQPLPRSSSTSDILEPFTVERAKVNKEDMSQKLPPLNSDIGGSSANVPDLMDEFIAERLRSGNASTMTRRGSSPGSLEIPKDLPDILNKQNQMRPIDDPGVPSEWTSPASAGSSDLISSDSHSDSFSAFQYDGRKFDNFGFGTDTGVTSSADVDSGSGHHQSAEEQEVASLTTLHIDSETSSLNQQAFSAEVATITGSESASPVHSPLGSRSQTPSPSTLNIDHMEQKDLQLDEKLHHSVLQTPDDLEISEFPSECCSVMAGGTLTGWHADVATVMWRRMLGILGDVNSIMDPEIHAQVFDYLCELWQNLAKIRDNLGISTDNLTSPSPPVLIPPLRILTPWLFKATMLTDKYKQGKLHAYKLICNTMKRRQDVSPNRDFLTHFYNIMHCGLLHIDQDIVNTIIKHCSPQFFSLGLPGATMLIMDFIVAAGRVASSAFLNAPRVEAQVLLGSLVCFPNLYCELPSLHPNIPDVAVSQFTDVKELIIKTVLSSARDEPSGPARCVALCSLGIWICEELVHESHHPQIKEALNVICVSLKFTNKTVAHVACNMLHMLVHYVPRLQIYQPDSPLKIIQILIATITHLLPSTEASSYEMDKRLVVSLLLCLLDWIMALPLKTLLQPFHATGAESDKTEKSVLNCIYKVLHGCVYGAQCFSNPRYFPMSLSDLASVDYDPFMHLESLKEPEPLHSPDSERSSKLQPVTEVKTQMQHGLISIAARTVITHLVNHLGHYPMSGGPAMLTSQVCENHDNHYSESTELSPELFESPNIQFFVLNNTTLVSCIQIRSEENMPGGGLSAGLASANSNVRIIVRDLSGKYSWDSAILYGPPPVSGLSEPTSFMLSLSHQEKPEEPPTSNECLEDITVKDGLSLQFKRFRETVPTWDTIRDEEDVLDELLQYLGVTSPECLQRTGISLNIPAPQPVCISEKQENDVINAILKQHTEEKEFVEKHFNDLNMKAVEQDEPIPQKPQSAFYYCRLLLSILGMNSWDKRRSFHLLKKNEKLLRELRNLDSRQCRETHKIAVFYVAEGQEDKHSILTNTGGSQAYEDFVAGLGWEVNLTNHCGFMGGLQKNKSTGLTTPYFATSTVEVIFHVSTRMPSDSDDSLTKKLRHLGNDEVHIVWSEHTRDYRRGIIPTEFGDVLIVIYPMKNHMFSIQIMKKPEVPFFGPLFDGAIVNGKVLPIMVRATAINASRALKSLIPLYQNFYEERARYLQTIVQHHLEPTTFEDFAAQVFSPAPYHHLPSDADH
row,Variant,effect of a mutation on the interaction
1,S438R;L441K,decreasing interaction strength
2,S438R;T439K;L441K,decreasing interaction strength

# Variants of: B1
# Settings: with RALGAPA1, Q6GYQ0-1
# Remark: another data set of the same source
row,Variant,effect of a mutation on the interaction
1,S438R;L441K,with no effect
2,S438R;T439K;L441K,with no effect
3,V280R,disrupting interaction strength
4,A281F,disrupting interaction strength
5,P283R,disrupting interaction strength
